Measured values from patent US20200283521A1 (GRANULAR THERAPEUTICS, published 2020).

T1: hVCAM-1 (human, UniProt P19320)
T1 construct: purified recombinant protein; member of the panel m9
T1 sequence (looked up): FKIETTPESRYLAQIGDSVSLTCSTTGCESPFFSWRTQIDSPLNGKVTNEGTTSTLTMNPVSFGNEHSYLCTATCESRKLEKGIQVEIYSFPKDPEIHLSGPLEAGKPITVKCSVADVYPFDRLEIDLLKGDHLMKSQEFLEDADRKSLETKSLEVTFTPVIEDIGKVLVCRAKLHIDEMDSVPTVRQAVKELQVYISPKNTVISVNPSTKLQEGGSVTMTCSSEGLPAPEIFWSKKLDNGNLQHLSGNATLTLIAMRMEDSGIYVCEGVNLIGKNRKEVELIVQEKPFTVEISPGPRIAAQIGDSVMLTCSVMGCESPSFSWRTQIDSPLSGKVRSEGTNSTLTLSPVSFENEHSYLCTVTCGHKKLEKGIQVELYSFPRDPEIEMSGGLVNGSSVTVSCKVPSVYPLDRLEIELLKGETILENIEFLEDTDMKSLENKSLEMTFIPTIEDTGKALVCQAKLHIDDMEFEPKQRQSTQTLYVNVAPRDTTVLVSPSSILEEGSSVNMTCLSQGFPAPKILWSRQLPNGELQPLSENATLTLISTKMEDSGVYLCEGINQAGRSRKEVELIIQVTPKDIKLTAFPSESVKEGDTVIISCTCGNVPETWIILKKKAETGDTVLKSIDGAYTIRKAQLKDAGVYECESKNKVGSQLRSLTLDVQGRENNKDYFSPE

T2: hCMET-Fc (The natural ectodomain is cleaved by furin after residue 307 into disulfide-linked alpha and beta chains. It is given here as one continuous stretch.)
T2 construct: member of the panel m9
T2 chain: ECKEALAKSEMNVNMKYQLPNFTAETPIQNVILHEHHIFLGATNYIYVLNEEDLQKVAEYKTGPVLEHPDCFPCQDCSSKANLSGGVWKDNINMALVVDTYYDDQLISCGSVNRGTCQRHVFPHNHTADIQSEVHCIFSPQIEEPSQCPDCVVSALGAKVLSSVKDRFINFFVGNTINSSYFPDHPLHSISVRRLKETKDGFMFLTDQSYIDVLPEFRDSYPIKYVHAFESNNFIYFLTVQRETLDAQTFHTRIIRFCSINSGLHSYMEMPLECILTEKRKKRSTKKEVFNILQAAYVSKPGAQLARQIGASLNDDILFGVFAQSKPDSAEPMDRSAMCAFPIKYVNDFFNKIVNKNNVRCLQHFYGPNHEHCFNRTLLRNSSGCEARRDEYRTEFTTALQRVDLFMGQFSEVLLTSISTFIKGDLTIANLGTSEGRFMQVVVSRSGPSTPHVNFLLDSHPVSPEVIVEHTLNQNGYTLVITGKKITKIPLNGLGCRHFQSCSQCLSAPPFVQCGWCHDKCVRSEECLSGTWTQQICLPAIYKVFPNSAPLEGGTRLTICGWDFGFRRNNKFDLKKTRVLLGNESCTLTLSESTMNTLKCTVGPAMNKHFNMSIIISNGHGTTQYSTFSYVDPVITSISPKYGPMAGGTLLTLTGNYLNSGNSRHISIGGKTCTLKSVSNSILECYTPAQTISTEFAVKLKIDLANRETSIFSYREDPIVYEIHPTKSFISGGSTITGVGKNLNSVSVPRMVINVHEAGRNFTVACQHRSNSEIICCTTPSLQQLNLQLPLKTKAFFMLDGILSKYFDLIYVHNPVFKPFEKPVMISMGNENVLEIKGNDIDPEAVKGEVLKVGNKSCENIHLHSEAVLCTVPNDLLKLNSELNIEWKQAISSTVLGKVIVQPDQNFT

T3: hDR3-Fc (human, UniProt Q93038)
T3 construct: Fc fusion; member of the panel m9
T3 sequence (looked up): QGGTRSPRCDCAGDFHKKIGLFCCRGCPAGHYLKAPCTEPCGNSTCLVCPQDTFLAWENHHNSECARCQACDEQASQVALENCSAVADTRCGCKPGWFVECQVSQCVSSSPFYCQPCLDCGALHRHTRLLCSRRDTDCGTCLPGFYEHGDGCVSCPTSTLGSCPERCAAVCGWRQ

T4: hEpCAM-Fc (human, UniProt P16422)
T4 construct: Fc fusion; member of the panel m9
T4 sequence (looked up): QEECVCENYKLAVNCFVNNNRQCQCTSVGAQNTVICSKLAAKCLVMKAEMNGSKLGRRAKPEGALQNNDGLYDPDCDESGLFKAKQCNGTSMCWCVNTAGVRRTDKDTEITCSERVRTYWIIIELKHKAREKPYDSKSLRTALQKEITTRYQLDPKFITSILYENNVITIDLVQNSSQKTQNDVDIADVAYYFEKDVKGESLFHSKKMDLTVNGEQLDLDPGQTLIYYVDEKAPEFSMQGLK

T5: hTWEAK-Fc (human, UniProt O43508)
T5 construct: Fc fusion; member of the panel m9
T5 sequence (looked up): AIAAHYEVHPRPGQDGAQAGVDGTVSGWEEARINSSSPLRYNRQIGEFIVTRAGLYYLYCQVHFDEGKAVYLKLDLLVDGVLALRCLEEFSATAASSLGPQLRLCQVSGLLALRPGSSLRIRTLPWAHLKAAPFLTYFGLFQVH

T6: hVCAM-Fc
T6 construct: member of the panel m9
T6 chain: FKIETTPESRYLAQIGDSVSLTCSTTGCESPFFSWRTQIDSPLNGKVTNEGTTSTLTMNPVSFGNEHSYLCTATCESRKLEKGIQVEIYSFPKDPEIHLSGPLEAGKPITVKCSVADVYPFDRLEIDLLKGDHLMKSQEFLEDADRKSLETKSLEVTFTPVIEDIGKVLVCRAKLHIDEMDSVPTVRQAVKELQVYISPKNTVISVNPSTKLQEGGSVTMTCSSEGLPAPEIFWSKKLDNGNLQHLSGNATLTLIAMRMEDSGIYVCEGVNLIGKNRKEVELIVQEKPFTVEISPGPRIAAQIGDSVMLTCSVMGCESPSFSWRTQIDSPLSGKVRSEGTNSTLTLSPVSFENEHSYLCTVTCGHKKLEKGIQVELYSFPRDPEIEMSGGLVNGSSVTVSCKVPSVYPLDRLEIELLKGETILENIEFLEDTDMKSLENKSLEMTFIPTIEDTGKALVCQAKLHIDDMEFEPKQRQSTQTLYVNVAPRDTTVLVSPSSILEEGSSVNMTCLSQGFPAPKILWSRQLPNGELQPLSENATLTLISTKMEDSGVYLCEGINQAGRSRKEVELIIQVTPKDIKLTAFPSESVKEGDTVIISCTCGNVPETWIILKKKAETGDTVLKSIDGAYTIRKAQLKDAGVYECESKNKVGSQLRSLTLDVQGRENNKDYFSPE


How the values were obtained:
[1] = target: T7, cynomolgus monkey C-KIT-Fc (cynomolgus monkey); test: direct titration ELISA on coated C-KIT-Fc, IgG1 format
T7 construct: also called cyno C-KIT-Fc
Description: Direct titration ELISA for second-generation designer IgGs binding to human and cyno C-KIT-Fc proteins.
To coat Greiner Bio-One High bind ELISA plates, target proteins were diluted to 1 μg/ml in carbonate buffer and added at 100 μl per well, at 4° C., o/n. Coated plates were washed 3× with PBS pH7.4, blocked with 1% BSA in PBS (380 μl/well) for 1 hr at RT, then washed 3× with PBS-Tween 20 (PBST). C-KIT antibodies (100 μl/well; diluted in PBST) were then added and then incubated 1 hr at RT. Plates were then washed 3× with PBST and goat anti-human kappa chain-HRP added (100 μl/well) at RT, for 1 hr. Plates were then washed 3× with PBST and twice with PBS before the addition of 100 μl TMB per well. Reactions were stopped by adding 100 μl 2M H₂SO₄/well and OD was read on a plate reader at 450 nm.

hBAFFR-Fc = target: T8, hBAFFR-Fc (human, UniProt Q96RJ3); test: direct ELISA on coated protein, IgG1
T8 construct: Fc fusion; member of the panel m9

hVCAM-1 = target: T1, hVCAM-1; test: direct ELISA on coated protein, IgG1
hCMET-Fc = target: T2, hCMET-Fc; test: direct ELISA on coated protein, IgG1
hDR3-Fc = target: T3, hDR3-Fc; test: direct ELISA on coated protein, IgG1
hEpCAM-Fc = target: T4, hEpCAM-Fc; test: direct ELISA on coated protein, IgG1
hTWEAK-Fc = target: T5, hTWEAK-Fc; test: direct ELISA on coated protein, IgG1
h4-1BB-Fc = target: T9, h4-1BB-Fc; test: direct ELISA on coated protein, IgG1
T9 construct: member of the panel m9

hCD4 = target: T10, hCD4 (human, UniProt P01730); test: direct ELISA on coated protein, IgG1
T10 construct: purified recombinant protein; member of the panel m9

hVCAM-Fc = target: T6, hVCAM-Fc; test: direct ELISA on coated protein, IgG1

T8 sequence (Q96RJ3 7-71 limits assumed): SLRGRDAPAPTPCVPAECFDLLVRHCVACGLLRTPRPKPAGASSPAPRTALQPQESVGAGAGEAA
T9 sequence (chain, as listed by the source limits assumed): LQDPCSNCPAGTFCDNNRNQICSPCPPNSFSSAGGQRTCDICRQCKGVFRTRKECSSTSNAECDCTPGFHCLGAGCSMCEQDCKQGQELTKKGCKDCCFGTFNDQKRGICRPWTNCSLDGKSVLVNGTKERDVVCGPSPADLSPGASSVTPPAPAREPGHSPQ

EC50 (read off the curve) [1] [µg/mL] | binding result (hBAFFR-Fc) | binding result (hVCAM-1) | binding result (hCMET-Fc) | binding result (hDR3-Fc) | binding result (hEpCAM-Fc) | binding result (hTWEAK-Fc) | binding result (h4-1BB-Fc) | binding result (hCD4) | binding result (hVCAM-Fc) | Binder
~0.1 | – | – | – | – | – | – | – | – | – | MH5, human IgG1 (antibody, V domains shown, IgG1; also called C-KIT-MH5; C-KIT-MHS) VH: QVQLVQSGAEVKKPGASVKVSCKASGYTFTDYYMNWVRQAPGQGLEWMGRIYPGSGNTYYAQKFQGRVTMTRDTSTSTVYMELSSLRSEDTAVYYCARGVYYYDYWGQGTLVTVSS VL: DIQMTQSPSSLSASVGDRVTITCRASQGIRTNLAWFQQKPGKAPKSLIYSASSLQSGVPSRFSGSGSGTDFTLTISSLQPEDFATYYCQQYANYPRTFGGGTKVEIK
– | no binding (tested: 1 µg/ml) | no binding (tested: 1 µg/ml) | no binding (tested: 1 µg/ml) | no binding (tested: 1 µg/ml) | no binding (tested: 1 µg/ml) | no binding (tested: 1 µg/ml) | no binding (tested: 1 µg/ml) | no binding (tested: 1 µg/ml) | no binding (tested: 1 µg/ml) | humanized h37M, human IgG1 (antibody, V domains shown, human IgG1; terbium-labelled as the tracer of the HTRF assays; also called C-KIT-h37M; h37M-IgG1) VH: QVQLVQSGAEVKKPGASVKLSCKASGYTFTDYYINWVRQAPGKGLEWIARIYPGSGNTYYNEKFKGRATLTADKSTSTAYMQLSSLRSEDTAVYFCARGVYYFDYWGQGTTVTVSS VL: DIVMTQSPSSLSASVGDRVTITCKASQNVRTNVAWYQQKPGKAPKALIYSASYRYSGVPDRFTGSGSGTDFTLTISSLQPEDFADYFCQQYNSYPRTFGGGTKVEIK
